We go through three molecules from US20200093922A1 (AGENCY FOR SCIENCE TECHNOLOGY AND RESEARCH, published 2020).

Experiment [1] concerns the target T1, biotinylated human PD-L1 (human, UniProt Q9NZQ7 19-238, limits assumed, biotinylated (site not stated)). The experiment is described as follows: blocking ELISA: biotinylated human PD-L1 pre-incubated with Fab, then added to coated human PD-1-Fc (blocked partner), streptavidin-HRP. For orientation: ELISA stands for enzyme-linked immunosorbent assay.
The target of experiment [2] is biotinylated murine PD-L1 (murine, UniProt Q9EP73 19-238, limits assumed, biotinylated (site not stated)). Put plainly: blocking ELISA: biotinylated murine PD-L1 pre-incubated with Fab, then added to coated murine PD-1-Fc (blocked partner), streptavidin-HRP.
The target in experiment [3] is T2, human PD-L1 coupled to human Fc (human, UniProt Q9NZQ7 19-239, limits assumed).
T2 construct: also called human PD-L1-Fc; not shown: human Fc
The experiment is described as follows: ELISA on coated human PD-L1-Fc, Fab detected with anti-human Fab-HRP, absorbance 450-670 nm. Here is the method:
(§1) After 90 minutes at room temperature under agitation and extensive washes, a goat anti-human Fab antibody coupled to HRP was added. One hour later, plates were washed and TMB substrate added. The reaction was stopped with 1M HCl and optical density measured at 450 nm with a reference at 670 nm.

Experiment [4] deals with T3, human PD-L1 (ELISA antigen, construct not stated) (human, UniProt Q9NZQ7 19-238, limits assumed).
T3 construct: The construct is not described; also called hu PD-L1
The experiment is described as follows: ELISA of Fab clones with human PD-L1 as antigen.

For experiment [5], the target named is T4, murine PD-L1 coupled to human Fc (murine, UniProt Q9EP73 19-238, limits assumed).
T4 construct: also called murine PD-L1-Fc; mouse PD-L1 coupled to Fc; not shown: human Fc
The experiment is described as follows: ELISA on coated murine PD-L1-Fc, Fab detected with anti-human Fab-HRP, absorbance 450-670 nm. Here is the method:
as §1

The target in experiment [6] is T2, human PD-L1 coupled to human Fc. The experiment is described as follows: SPR (Proteon XPR36), human PD-L1-Fc immobilised, crude H12 Fab extract flowed.
The target is the same in experiment [7]. The experiment is described as follows: SPR, Proteon XPR36, human PD-L1-Fc immobilised, crude H12 Fab extract flown over. Background: In SPR one partner is held on a chip, and binding of the other changes the refractive index at the surface.
For experiment [8], the target named is T4, murine PD-L1 coupled to human Fc. The experiment is described as follows: SPR (Proteon XPR36), mouse PD-L1-Fc immobilised, crude H12 Fab extract flowed.
Experiment [9] has the same target. Put plainly: SPR, Proteon XPR36, murine PD-L1-Fc immobilised, crude H12 Fab extract flown over.
Experiment [10] addresses T5, human PD-1 (ELISA antigen of Example 8) (human, UniProt Q15116 25-167, limits assumed).
T5 construct: also called hu PD-1
Put plainly: ELISA on coated antigen (sheet label huPD-1-Fc).

Experiment [11] concerns the target T6, human CD28 (human, UniProt P10747 19-152, limits assumed).
T6 construct: also called hu CD28
The experiment is described as follows: ELISA on coated antigen (sheet label huCD28-Fc).

For experiment [12], the target named is PD-L1 (blocking ELISA of Example 13) (Homo sapiens (Human), UniProt Q9NZQ7 19-238). Put plainly: blocking ELISA: antibody pre-incubated with PD-L1, added to coated PD-1 (blocked partner), PD-1-bound PD-L1 detected.
Experiment [13] addresses T1, biotinylated human PD-L1. The experiment is described as follows: avidity ELISA: biotinylated human PD-L1 at 0.2 ug/mL on neutravidin, antibody titrated (x axis IgG, nM), anti-human Fc-HRP. The procedure:
Neutravidin was coated onto maxisorp plates at 2 μg/mL in coating buffer and incubated overnight at 4° C. The next day, plates were washed with wash buffer (PBS+0.05% Tween-20), and blocker with casein for 1 hour, at room temperature. Plates were then washed again using wash buffer. […] Plates were then washed again using wash buffer. The different antibodies were then added at various concentrations, and incubated for 1 hour at room temperature. Plates were then washed again using wash buffer. Anti-human Fc-HRP was then added and incubated for 1 hour at room temperature. Plates were then washed again using wash buffer. Finally, TMB was added to develop the ELISA; TMB conversion by HRP was stopped using 1M H-Cl.

Experiment [14] addresses T7, human LAG-3 (human, UniProt P18627 23-450, limits assumed).
T7 construct: also called hu LAG-3
T7 sequence (looked up): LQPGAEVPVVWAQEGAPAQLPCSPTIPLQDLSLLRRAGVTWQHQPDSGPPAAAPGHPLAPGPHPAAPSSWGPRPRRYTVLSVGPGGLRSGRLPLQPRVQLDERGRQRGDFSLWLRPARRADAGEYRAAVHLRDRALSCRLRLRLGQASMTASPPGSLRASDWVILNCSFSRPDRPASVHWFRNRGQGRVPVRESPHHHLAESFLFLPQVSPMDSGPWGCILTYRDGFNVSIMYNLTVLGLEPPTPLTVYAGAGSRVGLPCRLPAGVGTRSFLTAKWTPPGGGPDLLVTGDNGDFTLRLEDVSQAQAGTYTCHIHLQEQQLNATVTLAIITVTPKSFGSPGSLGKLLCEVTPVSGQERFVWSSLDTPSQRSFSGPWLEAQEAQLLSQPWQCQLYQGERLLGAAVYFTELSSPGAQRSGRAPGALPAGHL
The experiment is described as follows: ELISA on coated antigen (sheet label huLAG-3-Fc).

The target in experiment [15] is T8, human TIM-3 (human, UniProt Q8TDQ0 22-200, limits assumed).
T8 construct: also called hu TIM-3
Put plainly: ELISA on coated antigen (sheet label huTIM-3-Fc).

Experiment [16] has as its target T9, human CTLA-4 (human, UniProt P16410 36-162, limits assumed).
T9 construct: also called hu CTL-A4
The experiment is described as follows: ELISA on coated antigen (sheet label huCTL-A4).

The target of experiment [17] is T10, human PD-L2 (human, UniProt Q9BQ51 20-220, limits assumed).
T10 construct: also called hu PD-L2
T10 sequence (looked up): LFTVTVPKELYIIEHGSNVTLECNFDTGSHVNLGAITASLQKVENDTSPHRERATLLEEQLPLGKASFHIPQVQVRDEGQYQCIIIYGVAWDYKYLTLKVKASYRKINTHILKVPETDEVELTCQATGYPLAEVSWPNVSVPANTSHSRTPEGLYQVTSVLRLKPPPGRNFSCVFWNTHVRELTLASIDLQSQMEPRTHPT
The experiment is described as follows: ELISA on coated antigen (sheet label huPD-L2-Fc).

The target of experiment [18] is T11, human ICOS (human, UniProt Q9Y6W8 21-140, limits assumed).
T11 construct: also called hu ICOS
T11 sequence (looked up): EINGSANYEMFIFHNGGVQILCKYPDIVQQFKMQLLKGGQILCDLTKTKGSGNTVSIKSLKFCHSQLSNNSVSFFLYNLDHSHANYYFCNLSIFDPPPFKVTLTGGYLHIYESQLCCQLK
The experiment is described as follows: ELISA on coated antigen (sheet label huICOS-Fc).

For experiment [19], the target named is T12, human BTLA (human, UniProt Q7Z6A9 31-151, limits assumed).
T12 construct: also called hu BLTA
The experiment is described as follows: ELISA on coated antigen (sheet label huBTLA-Fc).

In experiment [20] the target is T1, biotinylated human PD-L1. Put plainly: ELISA: antibody coated at 2 ug/mL, biotinylated human PD-L1 titrated (x axis Human PD-L1, nM), streptavidin-HRP. The procedure:
Binding was measured by ELISA. Antibodies were coated onto maxisorp plates at 2 μg/mL in coating buffer and incubated overnight at 4° C. The next day, plates were washed with wash buffer (PBS+0.05% Tween-20), and blocker with casein for 1 hour, at room temperature. Plates were then washed again using wash buffer. […] Plates were then washed again using wash buffer. […] Plates were then washed again using wash buffer. Finally, TMB was added to develop the ELISA; TMB conversion by HRP was stopped using 1M H-Cl.

T1 sequence (Q9NZQ7 19-238 limits assumed): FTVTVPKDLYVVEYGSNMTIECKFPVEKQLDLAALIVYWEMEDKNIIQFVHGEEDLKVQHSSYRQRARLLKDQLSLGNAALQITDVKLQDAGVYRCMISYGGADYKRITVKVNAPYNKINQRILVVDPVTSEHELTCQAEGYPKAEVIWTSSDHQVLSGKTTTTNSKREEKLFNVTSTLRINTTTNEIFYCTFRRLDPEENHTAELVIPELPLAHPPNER
T4 sequence (Q9EP73 19-238 limits assumed): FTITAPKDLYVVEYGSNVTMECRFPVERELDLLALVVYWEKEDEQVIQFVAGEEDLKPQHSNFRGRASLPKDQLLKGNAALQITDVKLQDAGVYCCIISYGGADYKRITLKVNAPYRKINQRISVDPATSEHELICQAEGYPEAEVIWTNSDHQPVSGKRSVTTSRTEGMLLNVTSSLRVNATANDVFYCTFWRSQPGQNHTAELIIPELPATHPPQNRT
T2 sequence (Q9NZQ7 19-239 limits assumed): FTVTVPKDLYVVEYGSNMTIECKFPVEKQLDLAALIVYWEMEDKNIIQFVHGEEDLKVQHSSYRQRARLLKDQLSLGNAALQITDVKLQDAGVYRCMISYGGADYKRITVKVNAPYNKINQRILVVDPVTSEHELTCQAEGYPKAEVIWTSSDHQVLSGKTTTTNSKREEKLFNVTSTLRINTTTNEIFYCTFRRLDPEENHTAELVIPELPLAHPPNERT
biotinylated murine PD-L1, sequence (Q9EP73 19-238 limits assumed): as the sequence (Q9EP73 19-238 limits assumed) above
T3 sequence (Q9NZQ7 19-238 limits assumed): as the sequence (Q9NZQ7 19-238 limits assumed) above
PD-L1 (blocking ELISA of Example 13), sequence (Q9NZQ7 19-238 limits assumed): as above
T5 sequence (Q15116 25-167 limits assumed): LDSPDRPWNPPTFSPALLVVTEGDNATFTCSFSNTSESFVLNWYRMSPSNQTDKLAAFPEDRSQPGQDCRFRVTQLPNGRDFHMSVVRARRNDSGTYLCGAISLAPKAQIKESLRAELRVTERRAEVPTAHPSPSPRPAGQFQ
T9 sequence (P16410 36-162 limits assumed): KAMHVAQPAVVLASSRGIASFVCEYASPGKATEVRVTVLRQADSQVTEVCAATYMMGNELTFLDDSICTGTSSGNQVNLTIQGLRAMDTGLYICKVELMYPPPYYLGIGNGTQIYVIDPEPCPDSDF
T12 sequence (Q7Z6A9 31-151 limits assumed): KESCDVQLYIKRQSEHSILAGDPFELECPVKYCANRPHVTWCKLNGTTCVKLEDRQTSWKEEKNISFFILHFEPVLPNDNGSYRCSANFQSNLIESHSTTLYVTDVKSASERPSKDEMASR

B1: anti-PD-L1 antibody clone A1, Fab format (Fab, V domains shown)
VH: QVQLQQSGAEVKKPGSSVKVSCKASGGTFSSYAISWVRQAPGQGLEWMGRIIPILGIANYAQKFQGRVTITADKSTSTAYMELSSLRSEDTAVYYCARGGSYGSLYAFDIWGQGTMVTVSS
VL: QSVLTQPPSVSAAPGQRVSISCSGRSSNIASHDVFWYQQLPGTAPKIVMYETNKRPWGIPDRFSGSKSGTSATLDIAGLQTGDEADYYCGAWDSGLTGMLFGGGTKVTVL
notes: From a human phage display library and tested as Fab; the Fab constant domains are not
Regarding B1, the binding result in experiment [1], in experiment [2], in experiment [3], in experiment [4] and in experiment [5] was “binds” in each case.

B2: anti-PD-L1 antibody clone H12, Fab format (Fab, V domains shown)
VH: EVQLVQSGAEVKKPGASVKVSCKASGGTFSSYAISWVRQAPGQGLEWMGRIIPILGIANYAQKFQGRVTITADKSTSTAYMELSSLRSEDTAVYYCARSGHGYSYGAFDYWGQGTL
VL: QSVLTQPPSVSGAPGQRVTISCTGSSSNIGAGYDVHWYQQLPGTAPKLLIYGNSNRPSGVPDRFSGSKSGTSASLAITGLQAEDEADYYCQSYDSSLSGSYVVFGGGTKLTVL
notes: Tested as Fab; the SPR used a crude Fab extract; also called crude H12 Fab extract
In general, Kd refers to a measure of binding affinity in units of concentration. A low value points to higher affinity. The koff is a measure of how fast the partners let go of each other. Broadly, the kon is the second-order rate constant of association. A low value points to slower complex formation. Regarding B2, the Kd in experiment [6] came to 0.313 nM; in experiment [8], 3.04 nM. Besides, the “IC50 (read off the curve)” value was around 20 nM in experiment [1] and around 4 nM in experiment [2]. The results for the koff in [7] and in [9] were 0.000471 s⁻¹ and 0.00407 s⁻¹, respectively. Also, the on-rate (kon) came out at 1.5e+06 M⁻¹ s⁻¹ in experiment [7] and 1.34e+06 M⁻¹ s⁻¹ in experiment [9].

B3: anti-PD-L1 antibody H12 (format not stated) (antibody, V domains shown)
VH: B2 VH
VL: B2 VL
For orientation: EC50 (read off the curve) means the midpoint of the concentration-response curve. For the molecule B3, the binding result in experiment [10], in experiment [11], in [14], in [15], in [16] and in [17] was “no binding” throughout. For the same molecule, the binding result in experiment [18] and in experiment [19] was “no binding” in each case. In addition, in experiment [12], the “IC50 (read off the curve)” value is around 2 nM. Besides, the concentration for a half-maximal effect (EC50 (read off the curve)) in [13] was around 0.1 nM; in experiment [20], around 0.4 nM.
